Consider 1 molecule from patent US20090004190A1, “Rage Fusion Proteins And Methods Of Use” (priority 2006, published 2009).

Data set [1] deals with T1, amyloid-beta (Abeta) (Amyloid Beta (1-40)) (Homo sapiens, UniProt P05067).
T1 construct: Amyloid Beta (1-40) from Biosource; purchased Biosource
Kind of data set: In vitro ligand binding (ELISA) to immobilized amyloid-beta. The note with it: ligand 5 micrograms per well; FIG. 7. The method, then:
(§1) For example, the RAGE fusion protein may be used in a binding assay to identify potential RAGE ligands. In one example embodiment of such a binding assay, a known RAGE ligand may coated onto a solid substrate (e.g., Maxisorb plates) at a concentration of about 5 micrograms per well, where each well contains a total volume of about 100 microliters (μL). The plates may be incubated at 4° C. overnight to allow the ligand to absorb. Alternatively, shorter incubation periods at higher temperature (e.g., room temperature) may be used. […] The RAGE fusion protein bound to the immobilized ligand may be detected in a variety of ways. […] The bound complex may be detected by adding the alkaline phosphatase substrate, para-nitrophenylphosphate (PNPP), and measuring conversion of PNPP to para-nitrophenol (PNP) as an increase in absorbance at 405 nm. […] In the absence of ligand (i.e., coating with only BSA) there was no increase in absorbance. […] Binding was detected by the addition of an immunodetection complex containing a monoclonal mouse anti-human IgG1 diluted 1:11,000 to a final assay concentration (FAC) of 21 ng/100 μL, a biotinylated goat anti-mouse IgG diluted 1:500, to a FAC of […], and an avidin-linked alkaline phosphatase. […]
(An ELISA detects its analyte on a solid surface through an enzyme-linked reagent.)

The target in another data set is T2, S100b (S100) (Homo sapiens, UniProt P04271).
T2 sequence (P04271 1-92): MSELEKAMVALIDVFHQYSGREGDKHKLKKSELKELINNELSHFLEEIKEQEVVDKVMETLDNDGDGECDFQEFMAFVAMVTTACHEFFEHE
Kind of data set: In vitro ligand binding (ELISA) to immobilized S100b. As to conditions: ligand 5 micrograms per well; FIG. 7. The method, then: as §1

The test system of data set [2] is S100b/RAGE-induced production of TNF-α in THP-1 cells. Nature of the data set: Inhibition of S100b/RAGE-induced production of TNF-α in THP-1 cells. The data set is classed as cell-based. As to conditions: 10 μg protein, FIG. 10. The source says:
Use of the RAGE fusion proteins of the present invention to modulate expression of the cellular effector TNF-α is shown in FIG. 10. THP-1 myeloid cells may be cultured in RPMI-1640 media supplemented with 10% FBS and induced to secrete TNF-α via stimulation of RAGE with S100b. When such stimulation occurs in the presence of a RAGE fusion protein, induction of TNF-α by S100b binding to RAGE may be inhibited.
Previous work has shown that the myeloid THP-1 cells may secrete TNF-α in response to RAGE ligands. In this assay, THP-1 cells were cultured in RPMI-1640 media supplemented with 10% FBS using a protocol provided by ATCC. […] The amount of TNF-α secreted by the THP-1 cells was measured 24 hours after the addition of the proteins to the cell culture using a commercially available ELISA kit for TNF-α (R&D Systems, Minneapolis, Minn.).

The nature of data set [3]: Pharmacokinetic profile of TTP-4000 after IV injection (plasma ELISA). The format is in vivo. As to conditions: monkeys, single IV bolus 5 mg/kg, after ligands saturated, FIG. 11. On the procedure:
Blood samples (approximately 1.0 mL) were collected at pre-dose (i.e., prior to injection of the TTP4000), or at 0.083, 0.25, 0.5, 2, 4, 8, 12, 24, 48, 72, 96, 120, 168, 240, 288, and 336 hours post dose into tubes containing (lithium heparin). Following collection, the tubes were placed on wet ice (maximum 30 minutes) until centrifugation under refrigeration (at 2 to 8° C.) at 1500×g for 15 minutes. Each harvested plasma sample was then stored frozen (−70° C.±10° C.) until assayed for RAGE polypeptide using an ELISA at various time-points following the injection, as described in Example 6.
Initially, 50 uL of the RAGE specific monoclonal antibody 1HB1011 at a concentration of 10 ug/mL in 1×PBS pH 7.3 is coated on plates via overnight incubation. When ready for use, plates are washed three times with 300 uL of 1× Imidazole-Tween wash buffer and blocked with 1% BSA. […] The samples are allowed to incubate at room temperature for one hour. After incubation, the plates are plates are washed three times. A Goat Anti-human IgG11 (Sigma A3312) […] conjugate in 1×PBS with 1% BSA is added and allowed to incubate at room temperature for 1 hour. The plates are washed three times. Color was elucidated with paranitrophenylphosphate.

A further data set deals with Fc receptor. Kind of data set: Fc receptor activation: TNF-α secretion from THP-1 cells. The note with it: well precoated with 10 ug/well heat aggregated protein, 24 hours, FIG. 12. The format is cell-based. The source says: Fc stimulation results in TNF-α secretion.

T1 sequence (P05067 672-711): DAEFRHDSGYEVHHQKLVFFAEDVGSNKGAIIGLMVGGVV

B1: TTP-4000: four domain RAGE fusion protein: human RAGE V and C1 domains with interdomain linkers (to residue 251) fused to human IgG1 CH2 and CH3; SEQ ID NO: 34/56 (protein, listed as Homo sapiens)
chain: QNITARIGEPLVLKCKGAPKKPPQRLEWKLNTGRTEAWKVLSPQGGGPWDSVARVLPNGSLFLPAVGIQDEGIFRCQAMNRNGKETKSNYRVRVYQIPGKPEIVDSASELTAGVPNKVGTCVSEGSYPAGTLSWHLDGKPLVPNEKGVSVKEQTRRHPETGLFTLQSELMVTPARGGDPRPTFSCSFSPGLPRHRALRTAPIQPRVWEPVPLEEVQLVVEPEGGAVAPPSVFLFPPKPKDTLMISRTPEVTCVVVDVSHEDPEVKFNWYVDGVEVHNAKTKPREEQYNSTYRVVSVLTVLHQDWLNGKEYKCKVSNKALPAPIEKTISKAKGQPREPQVYTLPPSRDELTKNQVSLTCLVKGFYPSDIAVEWESNGQPENNYKTTPPVLDSDGSFFLYSKLTVDKSRWQQGNVFSCSVMHEALHNHYTQKSLSLSPGK
On to B1, for which the “binding to immobilized amyloid-beta (absorbance at 405 nm)” value in data set [1] is given as “specifically interact”. Besides, the “binding to immobilized S100b (absorbance at 405 nm)” value with S100b (S100) is given as “specifically interact”. In addition, the “blocking S100b induction of TNF-α compared with sRAGE” value in data set [2] is “at least as effective”. For the same molecule, in data set [2] (S100b 0.1 mg/ml FAC, 24 hours), the “reduction of S100b induction of TNF-α” value is listed as ~70%. In data set [3], the terminal half-life entry is on record as “greater than 300 hours”. Further, the TNF generated result in the data set on Fc receptor was “less than 2 ng/well”.
